Reference: patent US20230265179A1 (TWIST BIOSCIENCE, published 2023)

target: T1, IL1RL1 (UniProt Q01638 19-328, limits assumed); test: SPR (Carterra LSA), antibody amine-coupled, 1:1 model;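 further: HC30M sensor chip at 25 °C in HBS-TE, analyte at rising concentrations in buffer containing 0.5 mg/mL BSA, 5 min association then 15 min dissociation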
T1 construct: SPR analyte
T1 sequence (looked up): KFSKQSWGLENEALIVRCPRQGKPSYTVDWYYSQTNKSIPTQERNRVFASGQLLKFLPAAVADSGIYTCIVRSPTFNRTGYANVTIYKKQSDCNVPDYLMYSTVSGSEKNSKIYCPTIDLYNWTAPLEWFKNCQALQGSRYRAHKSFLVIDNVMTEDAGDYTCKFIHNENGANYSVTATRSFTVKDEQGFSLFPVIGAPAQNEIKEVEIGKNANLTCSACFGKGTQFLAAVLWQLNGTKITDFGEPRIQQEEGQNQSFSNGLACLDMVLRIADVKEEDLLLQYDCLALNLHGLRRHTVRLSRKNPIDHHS
Procedure: SPR experiments were performed on a Carterra LSA SPR biosensor equipped with a HC30M chip at 25° C. in HBS-TE. Antibodies were diluted to 10 μg/mL and amine-coupled to the sensor chip by EDC/NHS activation, followed by ethanolamine HCl quenching. Increasing concentrations of analyte were flowed over the sensor chip in HBS-TE with 0.5 mg/mL BSA with 5-minute association and 15-minute dissociation. Following each injection cycle the surface was regenerated with 2× 30-second injections of IgG elution buffer (Thermo). Data were analyzed in Carterra's Kinetics Tool software with 1:1 binding model.

Row | Binder | Kd [nM] | koff [s⁻¹] | kon [M⁻¹ s⁻¹]
1 | IL1RL1-89 (Fc fusion, not shown: a dimerising Fc or GST, VHH-Fc on IgG2 Fc) VHH: EVQLVESGGGLVQPGGSLRLSCAASGSIYSLVAMGWFRQAPGKEREAVAGIVSGGSTSYADSVKGRFTISADNSKNTAYLQMNSLKPEDTAVYYCAAVGGATTVTASEWDWGQGTLVTVSS | 0.781 | 0.000388 | 496000
2 | IL1RL1-91 (Fc fusion, not shown: a dimerising Fc or GST) VHH: EVQLVESGGGLVQPGGSLRLSCAASGGTFGSYAMGWFRQAPGKEREGVAAIYTGGITTYADSVKGRFTISADNSKNTAYLQMNSLKPEDTAVYYCAAFDGYSGSDWGQGTLVTVSS | 1.85 | 0.000261 | 141000
3 | IL1RL1-88 (Fc fusion, not shown: a dimerising Fc or GST, VHH-Fc on IgG2 Fc) VHH: EVQLVESGGGLVQPGGSLRLSCAASGRTSHGYGGYGMGWFRQAPGKEREEVAAISSSGSSTVYADSVKGRFTISADNSKNTAYLQMNSLKPEDTAVYYCAAIAYEEGVYRWDWGQGTLVTVSS | 0.529 | 0.000104 | 197000
4 | IL1RL1-78 (Fc fusion, not shown: a dimerising Fc or GST, VHH-Fc on IgG2 Fc) VHH: EVQLVESGGGLVQPGGSLRLSCAASGFTLDDYAMGWFRQAPGKEREEVAAISWIIGSTKYADSVKGRFTISADNSKNTAYLQMNSLKPEDTAVYYCAAIVYEEGVYRWDWGQGTLVTVSS | 1.36 | 0.000278 | 204000

target: T2, IL1RL1 over-expressed on Expi293 cells (UniProt Q01638 19-556, limits assumed); test: flow cytometry, 100 nM antibody, over-expressing Expi293 / parent cells
T2 construct: whole, on cells; Target of the flow cytometry MFI ratio (over-expressing cells over parent cells); also called cytokine over-expressing Expi293 cells
T2 sequence (looked up): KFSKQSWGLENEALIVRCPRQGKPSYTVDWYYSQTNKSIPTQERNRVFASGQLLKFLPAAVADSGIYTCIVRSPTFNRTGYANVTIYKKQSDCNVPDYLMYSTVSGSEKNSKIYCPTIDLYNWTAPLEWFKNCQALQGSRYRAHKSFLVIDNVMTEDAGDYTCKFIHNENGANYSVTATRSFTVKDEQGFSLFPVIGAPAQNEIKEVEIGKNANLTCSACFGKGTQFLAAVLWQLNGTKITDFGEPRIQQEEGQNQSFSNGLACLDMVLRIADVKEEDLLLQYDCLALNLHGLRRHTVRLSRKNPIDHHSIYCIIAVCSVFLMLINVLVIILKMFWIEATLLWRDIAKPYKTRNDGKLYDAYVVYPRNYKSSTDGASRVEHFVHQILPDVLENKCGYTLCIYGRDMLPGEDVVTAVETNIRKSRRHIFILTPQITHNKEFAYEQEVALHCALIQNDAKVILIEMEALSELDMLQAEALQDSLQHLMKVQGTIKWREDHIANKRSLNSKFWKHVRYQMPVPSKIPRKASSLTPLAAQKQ
Procedure: (§1) All incubations and washes were in buffer containing PBS+1% BSA. MFI Ratio is defined by the mean fluorescence intensity (MFI) of the cytokine over-expressing Expi293 cell over the Expi293 parent cell. […] EC50 was calculated in GraphPad Prism.

Row | Binder | 100 nM FACS (MFI Ratio) [MFI ratio]
5 | IL1RL1-89 (Fc fusion, not shown: a dimerising Fc or GST, VHH-Fc on IgG2 Fc) VHH: EVQLVESGGGLVQPGGSLRLSCAASGSIYSLVAMGWFRQAPGKEREAVAGIVSGGSTSYADSVKGRFTISADNSKNTAYLQMNSLKPEDTAVYYCAAVGGATTVTASEWDWGQGTLVTVSS | 340
6 | IL1RL1-91 (Fc fusion, not shown: a dimerising Fc or GST) VHH: EVQLVESGGGLVQPGGSLRLSCAASGGTFGSYAMGWFRQAPGKEREGVAAIYTGGITTYADSVKGRFTISADNSKNTAYLQMNSLKPEDTAVYYCAAFDGYSGSDWGQGTLVTVSS | 475
7 | IL1RL1-88 (Fc fusion, not shown: a dimerising Fc or GST, VHH-Fc on IgG2 Fc) VHH: EVQLVESGGGLVQPGGSLRLSCAASGRTSHGYGGYGMGWFRQAPGKEREEVAAISSSGSSTVYADSVKGRFTISADNSKNTAYLQMNSLKPEDTAVYYCAAIAYEEGVYRWDWGQGTLVTVSS | 339
8 | IL1RL1-78 (Fc fusion, not shown: a dimerising Fc or GST, VHH-Fc on IgG2 Fc) VHH: EVQLVESGGGLVQPGGSLRLSCAASGFTLDDYAMGWFRQAPGKEREEVAAISWIIGSTKYADSVKGRFTISADNSKNTAYLQMNSLKPEDTAVYYCAAIVYEEGVYRWDWGQGTLVTVSS | 475

target: T3, IL1RL2 over-expressed on Expi293 cells (UniProt Q9HB29 20-575, limits assumed); test: flow cytometry, over-expressing Expi293 vs parent cells, 100 nM antibody;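 further: ratio is mean fluorescence intensity on over-expressing Expi293 cells divided by that measured on parental Expi293 cells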
T3 construct: whole, on cells; Target of the flow cytometry assay; MFI ratio is over-expressing cells over parent cells
T3 sequence (looked up): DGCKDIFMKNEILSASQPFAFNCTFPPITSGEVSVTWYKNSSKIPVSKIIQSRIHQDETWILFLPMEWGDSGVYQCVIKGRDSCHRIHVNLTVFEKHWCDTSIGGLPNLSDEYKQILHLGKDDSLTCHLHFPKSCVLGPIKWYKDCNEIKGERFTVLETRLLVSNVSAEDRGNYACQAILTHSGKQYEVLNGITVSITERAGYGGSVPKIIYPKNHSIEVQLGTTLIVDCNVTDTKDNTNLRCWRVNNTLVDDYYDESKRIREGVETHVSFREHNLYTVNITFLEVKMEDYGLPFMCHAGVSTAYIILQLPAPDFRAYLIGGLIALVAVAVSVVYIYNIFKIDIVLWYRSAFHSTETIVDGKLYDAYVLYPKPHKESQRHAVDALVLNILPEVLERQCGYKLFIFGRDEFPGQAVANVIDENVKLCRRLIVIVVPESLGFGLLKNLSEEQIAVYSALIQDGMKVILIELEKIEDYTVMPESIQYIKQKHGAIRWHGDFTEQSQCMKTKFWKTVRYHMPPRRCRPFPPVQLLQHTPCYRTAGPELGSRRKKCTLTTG
Procedure: as §1

Row | Binder | 100 nM FACS (MFI Ratio)
9 | IL1RL2-10 (VHH, VHH-Fc based on IgG2 Fc) VHH: EVQLVESGGGLVQPGGSLRLSCAASGFTFSNHIMGWFRQAPGKEREWVSGINRDGSTSYADSVKGRFTISADNSKNTAYLQMNSLKPEDTAVYYCAKARQITGWDFDYWGQGTLVTVSS | 12.7
10 | IL1RL2-4 (VHH, VHH-Fc based on IgG2 Fc) VHH: EVQLVESGGGLVQPGGSLRLSCAASGFILREYNMGWFRQAPGKEREFVAAISPSAFTEYADSVKGRFTISADNSKNTAYLQMNSLKPEDTAVYYCAAANEYWVYVNPNRYTWGQGTLVTVSS | 15.7
11 | IL1RL2-54 (VHH, VHH-Fc based on IgG2 Fc) VHH: EVQLVESGGGLVQPGGSLRLSCAASGRYFSDYNMGWFRQAPGKEREFVAAISPSAFTEYADSVKGRFTISADNSKNTAYLQMNSLKPEDTAVYYCAAANEYWVYVNPNRYTWGQGTLVTVSS | 21.1
12 | IL1RL2-16 (VHH, VHH-Fc based on IgG2 Fc) VHH: EVQLVESGGGLVQPGGSLRLSCAASGSDFSIKAMGWFRQAPGKEREFVADIYTSTTTNYTNYADSVKGRFTISADNSKNTAYLQMNSLKPEDTAVYYCAAIAYEEGVYRWDWGQGTLVTVSS | 37.6
13 | IL1RL2-32 (VHH, VHH-Fc based on IgG2 Fc) VHH: EVQLVESGGGLVQPGGSLRLSCAASGNDFSIKAMGWFRQAPGKEREFVADIYTSTTTNYTNYADSVKGRFTISADNSKNTAYLQMNSLKPEDTAVYYCAAIAHEEGVYRWDWGQGTLVTVSS | 20.1
14 | IL1RL2-55 (VHH, VHH-Fc based on IgG2 Fc) VHH: EVQLVESGGGLVQPGGSLRLSCAASGYTDSNLWMGWFRQAPGKEREFVASIDWSGRSTYYADSVKGRFTISADNSKNTAYLQMNSLKPEDTAVYYCAANGIESYGWGNRHFNWGQGTLVTVSS | 49.7
15 | IL1RL2-19 (VHH, VHH-Fc based on IgG2 Fc) VHH: EVQLVESGGGLVQPGGSLRLSCAASGYTDSNLWMGWFRQAPGKEREFVASVNWSGKDTYYADSVKGRFTISADNSKNTAYLQMNSLKPEDTAVYYCAANGIESYGWGNRHFNWGQGTLVTVSS | 13.8
16 | IL1RL2-13 (VHH, VHH-Fc based on IgG2 Fc) VHH: EVQLVESGGGLVQPGGSLRLSCAASGYTDSNLWMGWFRQAPGKEREFVGSIDWIPSNIYYADSVKGRFTISADNSKNTAYLQMNSLKPEDTAVYYCAANGIESYGWGNRHFNWGQGTLVTVSS | 11.3
17 | IL1RL2-3 (VHH, VHH-Fc based on IgG2 Fc) VHH: EVQLVESGGGLVQPGGSLRLSCAASGRTVSTMGWFRQAPGKEREWVSTITFNGDHTYYADSVKGRFTISADNSKNTAYLQMNSLKPEDTAVYYCAKAYSSSWPYFDYWGQGTLVTVSS | 1.97
18 | IL1RL2-14 (VHH, VHH-Fc based on IgG2 Fc) VHH: EVQLVESGGGLVQPGGSLRLSCAASGFTFSNYWMGWFRQAPGKEREFVATIPWSGAYTEYADSVKGRFTISADNSKNTAYLQMNSLKPEDTAVYYCAAANEYWVYVNPNRYTWGQGTLVTVSS | 42.1
19 | IL1RL2-25 (VHH, VHH-Fc based on IgG2 Fc) VHH: EVQLVESGGGLVQPGGSLRLSCAASGLPFNNVYMGWFRQAPGKEREFVAAVTWSGAYTEYADSVKGRFTISADNSKNTAYLQMNSLKPEDTAVYYCAAANEYWVYVNPNRYTWGQGTLVTVSS | 16.5
20 | IL1RL2-49 (VHH, VHH-Fc based on IgG2 Fc) VHH: EVQLVESGGGLVQPGGSLRLSCAASGFTFSTYWMGWFRQAPGKEREFVATIPWIGAHTEYADSVKGRFTISADNSKNTAYLQMNSLKPEDTAVYYCAEANEYWGYVNPNRYTWGPGTLVTVSH | 190
21 | IL1RL2-8 (VHH, VHH-Fc based on IgG2 Fc) VHH: EVQLVESGGGLVQPGGSLRLSCAASGFTYSSNYMGWFRQAPGKEREFVAGISWTDAYTEYADSVKGRFTISADNSKNTAYLQMNSLKPEDTAVYYCAAANEYWVYVNPNRYTWGQGTLVTVSS | 12.8
22 | IL1RL2-39 (VHH, VHH-Fc based on IgG2 Fc) VHH: EVQLVESGGGLVQPGGSLRLSCAASGRAFSSTVMGWFRQAPGKEREFVAGIGWTDAYTEYADSVKGRFTISADNSKNTAYLQMNSLKPEDTAVYYCAAANEYWVYVNPNRYTWGQGTLVTVSS | 15.3
23 | IL1RL2-42 (VHH, VHH-Fc based on IgG2 Fc) VHH: EVQLVESGGGLVQPGGSLRLSCAASGRTFSSYDMGWFRQAPGKEREFVAAIVWIGGRTYYADSVKGRFTISADNSKNTAYLQMNSLKPEDTAVYYCADVNGDWGQGTLVTVSS | 2.47
24 | IL1RL2-21 (VHH, VHH-Fc based on IgG2 Fc) VHH: EVQLVESGGGLVQPGGSLRLSCAASGRTFSRYAMGWFRQAPGKEREFVAAINWSGDRTYYADSVKGRFTISADNSKNTAYLQMNSLKPEDTAVYYCAVSQPLNYYTYYDARRYDWGQGTLVTVSS | 20.9
25 | IL1RL2-41 (VHH, VHH-Fc based on IgG2 Fc) VHH: EVQLVESGGGLVQPGGSLRLSCAASGGTFSRYAMGWFRQAPGKEREFVAAVNWSGARTYYADSVKGRFTISADNSKNTAYLQMNSLKPEDTAVYYCAVSQPLNYYTYYDARRYDWGQGTLVTVSS | 5.33
26 | IL1RL2-43 (VHH, VHH-Fc based on IgG2 Fc) VHH: EVQLVESGGGLVQPGGSLRLSCAASGGTFSRYAMGWFRQAPGKEREFVAAISWSGANTYYADSVKGRFTISADNSKNTAYLQMNSLKPEDTAVYYCAVSQPLNYYTYYDARRYDWGQGTLVTVSS | 1.62
27 | IL1RL2-37 (VHH, VHH-Fc based on IgG2 Fc) VHH: EVQLVESGGGLVQPGGSLRLSCAASGGAFSTVAMGWFRQAPGKEREFVAAISWSRGRTFYADSVKGRFTISADNSKNTAYLQMNSLKPEDTAVYYCAVSQPLNYYTYYDARRYDWGQGTLVTVSS | 16.9
28 | IL1RL2-36 (VHH, VHH-Fc based on IgG2 Fc) VHH: EVQLVESGGGLVQPGGSLRLSCAASGRTYNSYSMGWFRQAPGKEREFVAAISWSGEHTYYADSVKGRFTISADNSKNTAYLQMNSLKPEDTAVYYCAVSQPLNYYTYYDARRYDWGQGTLVTVSS | 14
